Data set [1] addresses R.PabI Y68F R70D mutant, residues 8-226 (Pyrococcus abyssi) (UniProt Q9V2B6).
Data set [2] deals with the molecule itself. Briefly: cell-based or functional assay.
Data set [3] deals with the molecule itself. Briefly: crystal structure; R.PabI R32A E63A dimer co-crystallised with 20 bp blunt-ended nonspecific dsDNA (dsDNA:dimer 1:2) in 10 mM MES pH 6.0, 100 mM NaCl; sitting drop, 20 °C; one dimer in the asymmetric unit, tetramer = two dimers related by the crystallographic two-fold axis, sandwiching the dsDNA.
The target in data set [4] is R.PabI Y68F R70D D71R mutant, residues 8-226 (Pyrococcus abyssi) (UniProt Q9V2B6).

Data on four molecules can be found in paper PMC5059719, “Tetrameric structure of the restriction DNA glycosylase R.PabI in complex with nonspecific double-stranded DNA” (Scientific Reports, 2016).

B1: R.PabI Y68F R70D mutant, residues 8-226 (enzyme)
chain: EASVSFENGKIVVRLPITRPTSKIRVKKIENGVGIPVSTRKKSFPSDENLRDYYIEWQISFADDGKYDYELSRMVRLAHEHGILTYNDIYELLKFADDVKSYLEDKGIRRESTNEELYGFNIYEDVYPVAKKELPSGEFIGIVLKHKQRAVGYQSMVYVCIPLTNVEPSLAGRVARRNEVVKYEVPVDLMKELLKAFIIASETHKNDIVKFLRSIIGTS
Regarding B1, in data set [1], the DNA glycosylase activity relative to the Y68F control, 24 bp dsDNA substrate was found to be 127%; the DNA glycosylase activity relative to the Y68F control, 500 bp dsDNA substrate stood at 76%; the DNA glycosylase activity relative to the Y68F control, 3000 bp dsDNA substrate was 19%.

B2: R.PabI Y68F D71R mutant, residues 8-226 (enzyme, Pyrococcus abyssi, UniProt Q9V2B6 8-226, looked up)
chain: EASVSFENGKIVVRLPITRPTSKIRVKKIENGVGIPVSTRKKSFPSDENLRDYYIEWQISFARRGKYDYELSRMVRLAHEHGILTYNDIYELLKFADDVKSYLEDKGIRRESTNEELYGFNIYEDVYPVAKKELPSGEFIGIVLKHKQRAVGYQSMVYVCIPLTNVEPSLAGRVARRNEVVKYEVPVDLMKELLKAFIIASETHKNDIVKFLRSIIGTS
As for B2, in data set [2], the “DNA glycosylase activity relative to the Y68F control, 24 bp dsDNA substrate” value turned out to be 74%; the “DNA glycosylase activity relative to the Y68F control, 500 bp dsDNA substrate” value was 34%; the “DNA glycosylase activity relative to the Y68F control, 3000 bp dsDNA substrate” value was 19%.

B3: R.PabI R32A E63A double mutant, residues 8-226 (enzyme, Pyrococcus abyssi, UniProt Q9V2B6 8-226, looked up)
chain: EASVSFENGKIVVRLPITRPTSKIAVKKIENGVGIPVSTRKKSFPSDENLRDYYIAWQISYARDGKYDYELSRMVRLAHEHGILTYNDIYELLKFADDVKSYLEDKGIRRESTNEELYGFNIYEDVYPVAKKELPSGEFIGIVLKHKQRAVGYQSMVYVCIPLTNVEPSLAGRVARRNEVVKYEVPVDLMKELLKAFIIASETHKNDIVKFLRSIIGTS
notes: R.PabI, type II restriction enzyme (restriction DNA glycosylase) of Pyrococcus abyssi, residues 8-226, with R32A and E63A; Cloned into the NdeI-BamHI site of pET26b; also called protomers A and B; source: E. coli Rosetta(DE3)pLysS, purified (heat treatment, heparin column, MonoS)
Consider B3, for which the “stoichiometry N” value in data set [3] stood at 2.

B4: R.PabI Y68F R70D D71R mutant, residues 8-226 (enzyme)
chain: EASVSFENGKIVVRLPITRPTSKIRVKKIENGVGIPVSTRKKSFPSDENLRDYYIEWQISFADRGKYDYELSRMVRLAHEHGILTYNDIYELLKFADDVKSYLEDKGIRRESTNEELYGFNIYEDVYPVAKKELPSGEFIGIVLKHKQRAVGYQSMVYVCIPLTNVEPSLAGRVARRNEVVKYEVPVDLMKELLKAFIIASETHKNDIVKFLRSIIGTS
B4: in data set [4], the DNA glycosylase activity relative to the Y68F control, 24 bp dsDNA substrate amounted to 105%; the DNA glycosylase activity relative to the Y68F control, 500 bp dsDNA substrate worked out at 71%; the DNA glycosylase activity relative to the Y68F control, 3000 bp dsDNA substrate turned out to be 40%.

One may read the stoichiometry N as a count of units in the complex or per binding partner.
